Data published in paper PMC2747274 (2009).

How the values were obtained:
Assay in all cases: FP
[1] = target: fluorescently labeled histone H3 tail peptide, monomethylated at K27 (UniProt P68431, monomethyl-lysine at K27; fluorescent label (position not given))
[2] = target: fluorescently labeled histone H3 tail peptide, dimethylated at K9 (UniProt P68431, dimethyl-lysine at K9; fluorescent label (position not given))
[3] = target: fluorescently labeled histone H4 tail peptide, dimethylated at K20 (UniProt P62805, dimethyl-lysine at K20; fluorescent label (position not given))
[4] = target: fluorescently labeled histone H3 tail peptide, dimethylated at K4 (UniProt P68431, dimethyl-lysine at K4; fluorescent label (position not given))
[5] = target: fluorescently labeled histone H3 tail peptide, monomethylated at K9 (UniProt P68431, monomethyl-lysine at K9; fluorescent label (position not given))
[6] = target: fluorescently labeled histone H3 tail peptide, monomethylated at K4 (UniProt P68431, monomethyl-lysine at K4; fluorescent label (position not given))
[7] = target: fluorescently labeled histone H4 tail peptide, trimethylated at K20 (UniProt P62805, trimethyl-lysine at K20; fluorescent label (position not given))
[8] = target: fluorescently labeled histone H4 tail peptide, K20 unmodified (UniProt P62805, fluorescent label (position not given))
[9] = target: fluorescently labeled histone H4 tail peptide, monomethylated at K20 (UniProt P62805, monomethyl-lysine at K20; fluorescent label (position not given))
[10] = target: fluorescently labeled histone H3 tail peptide, dimethylated at K27 (UniProt P68431, dimethyl-lysine at K27; fluorescent label (position not given))

B1: human MBTD1 (Malignant Brain Tumor domain-containing protein 1) fragment composed of all four MBT repeats (residues 130-566) (domain or fragment)
chain: AKTKAAVSMEGFSWGNYINSNSFIAAPVTCFKHAPMGTCWGDISENVRVEVPNTDCSLPTKVFWIAGIVKLAGYNALLRYEGFENDSGLDFWCNICGSDIHPVGWCAASGKPLVPPRTIQHKYTNWKAFLVKRLTGAKTLPPDFSQKVSESMQYPFKPCMRVEVVDKRHLCRTRVAVVESVIGGRLRLVYEESEDRTDDFWCHMHSPLIHHIGWSRSIGHRFKRSDITKKQDGHFDTPPHLFAKVKEVDQSGEWFKEGMKLEAIDPLNLSTICVATIRKVLADGFLMIGIDGSEAADGSDWFCYHATSPSIFPVGFCEINMIELTPPRGYTKLPFKWFDYLRETGSIAAPVKLFNKDVPNHGFRVGMKLEAVDLMEPRLICVATVTRIIHRLLRIHFDGWEEEYDQWVDCESPDLYPVGWCQLTGYQLQPPASQSSR
**Q.** For B1, which Kd [1] is on record?
**A.** 244 µM

**Q.** And the Kd [2]?
**A.** 550 µM

**Q.** And the Kd [3]?
**A.** 13 µM

**Q.** And the Kd [4]?
**A.** 145 µM

**Q.** What about the Kd [5] of the same binder?
**A.** 152 µM

**Q.** And the Kd [6]?
**A.** 126 µM

**Q.** And the Kd [7]?
**A.** 680 µM

**Q.** What about the Kd [8] of the same binder?
**A.** 480 µM

**Q.** And the Kd [9]?
**A.** 7 µM

**Q.** And the Kd [10]?
**A.** 185 µM
